According to the supplement of paper PMC10567573:
± gives the standard deviation.

Assay: protein stability index of a GFP-peptide fusion (GPS, HEK-293T) (PSI 1-6); higher = more stable
Conditions: c terminus: a fixed tail appended
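Further: 24-mer peptide tiles fused after GFP, lentivirally expressed, FACS-sorted into six equal bins by GFP/DsRed ratio, decoded by Illumina sequencing, PSI is the read-weighted mean bin number.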

Row | Sequence | protein stability index (treatment: DMSO) | protein stability index (treatment: MLN4924 1 uM, 8 h)
1 | PHLMQEHMGTNVIVANTMPTHLSN [HNF4A] | 3.83 ± 0.19 | 3.97 ± 0.24
2 | TRRSSYEDSSLPSINALLQAEVLS [HNF4A] | 3.13 ± 0.22 | 3.15 ± 0.31
3 | KHYRFTHAEIIAWIRICRPGSIIG [CDC14A] | 2.55 ± 0.15 | 2.83 ± 0.67
4 | QLEQVIESQKANQCAVLIYTSGTT [ACSBG2] | 2.52 ± 0.32 | 2.51 ± 0.25
5 | ADLSQKSPELQEEFGYNAETQKLL [ARFIP2] | 4.95 ± 0.37 | 5.14 ± 0.17
6 | GVRVNNRFELINIDDLEDDPVVNG [TCF25] | 4.41 ± 0.16 | 4.51 ± 0.18
7 | SFIIYLKNIVIADFVMSLTFPFKI [P2RY14] | 3.16 ± 0.29 | 3.22 ± 0.4
8 | ELALFQMSVLWLEHDRETRMQYAP [KLHL14] | 2.44 ± 0.58 | 2.46 ± 0.34
9 | RRNSSSSMSSRLSIYDNVPGSILY [DLC1] | 2.75 ± 0.2 | 2.87 ± 0.45
10 | RRLLVKDPKRRMTIAQSLEHSWIK [DAPK3] | 2.67 ± 0.25 | 2.82 ± 0.4
11 | DNLLLDAKGHVKLSDFGLCTGLKK [STK38L] | 3.12 ± 0.1 | 3.38 ± 0.44
12 | AVSAMKCGLLPISPEALSLGEVAY [ADD1] | 2.31 ± 0.3 | 2.41 ± 0.066
13 | LTQDWVQENYLEYRQVPGSDPARY [MAGEA10] | 4.06 ± 0.22 | 3.88 ± 0.2
14 | ADKCVCGPSAPPAPTPPSLSQRVM [TIAF1] | 4.15 ± 0.24 | 4.42 ± 0.35
15 | RSLNVFVKEDDKLIFHRHPVAQST [SPSB1] | 3.15 ± 0.18 | 3.36 ± 0.26
16 | PDLRDIELKLGRKVPESLVRSLRG [LURAP1L] | 3.16 ± 0.4 | 3.17 ± 0.41
17 | AQKLTIRLSSRYRYGQLIEINSHS [TRIP13] | 2.17 ± 0.55 | 2.01 ± 0.27
18 | RPEITSRAINLLFDIARIERCNQL [ZER1] | 2.47 ± 0.55 | 2.35 ± 0.59
19 | AKAPPTACYAGAAPAPSQVKSKAK [CEBPB] | 5.36 ± 0.19 | 5.21 ± 0.2
20 | GFKRDYYLIRVDGKGSIKELFPTG [VPS39] | 2.06 ± 0.29 | 2.25 ± 0.36
21 | MAQQQMTSSQKALMLELKSLQEEP [UBE2R2] | 4.33 ± 0.28 | 4.29 ± 0.24
22 | VNSQFTAAVFKETFKSLSHIDPDV [ALG2] | 2.86 ± 0.47 | 3.05 ± 0.33
